# Residue numbers refer to the chain shown, from its start. Names and notes keep the numbering of the source.
# B1: 21C7 (antibody, IgG1, V domains shown)
# VH: QIQLQQSGPELVKPGASVKISCKASGYAFSSSWMNWVKKRPGKGLEWIGRIYPGDGDANYNGKFKGKATLTADKSSSTAYMQLSSLTSEDSAVYFCAGEGHYYGSGYRWYLDVWGTGTTVTVSS
# VL: DIQMTQSPASLSVSVGETVTITCRASENIYSNLAWYQQKQGKSPQLLVYAATNLADGVPSRFSGSGSGTQYSLKINSLQSEDFGSYYCQHFRGAPFTFGSGTKLEIK
# notes: mIgG1
# B2: 12F11 (antibody, IgG1, V domains shown)
# VH: EVQLQQSGPELVKPGASVKISCKASGYTFTDYYMNWVKQSHGKSLEWIGDINPNNGGTSYNQKFKGKATLTVDKSSSTAYMELRSLTSEDSAVYYCARWRQLRSDYWGQGTTLTVSS
# VL: DIQMTQSPASQSASLGESVTITCLASQTIGTWLAWYQQKPGKSPQLLIYAATSLADGVPSRFSGSGSGTKFSFKISSLQAEDFVSYYCQQLYSTPLTFGAGTKLELK
# notes: mIgG1
# B3: 3A9 (antibody, IgG1, V domains shown)
# VH: QVQLKQSGAELVRPGASVKLSCKASGYTFTDYYINWVKQRPGQGLEWIARIYPGSGNTYYNEKFKGKATLTAEKSSSTAYMQLSSLTSEDSAVYFCARGYGNSDYWGQGTTLTVSS
# VL: DILLTQSPAILSVSPGERVSFSCRASQSIGTRIHWYQQRTNGSPRLLIKYASESISGIPSRFSGSGSGTDFTLSINSVESEDIADYYCQQSNSWPYTFGGGTKLEIK
# notes: mIgG1
# B4: 4H4 (antibody, IgG1, V domains shown)
# VH: QVQLQQSGAELARPGASVKLSCKASGYTFTSYGISWVKQRTGQGLEWIGEIYPRSGNTYYNEKFKGKATLTADKSSSTAYMELRSLTSEDSAVYFCARRRGAGDGFDYWGQGTTLTVSS
# VL: DIQMTQTTSSLSASLGDRVTISCSASQGISNYLNWYQQKPDGTVKLLIYYTSSLHSGVPSRFSGSGSGTDYSLTISNLEPEDIATYYCQQYSKLPFTFGSGTKLEIK
# notes: mIgG1
# B5: 4B1 (antibody, IgG1, V domains shown)
# VH: B4 VH with K19R, I34L, S35I, V37L, N57S, K63W, S77N, Y80F, A102T, T114I
# VL: B4 VL with S92I, K93E
# notes: mIgG1
# B6: 8B4 (antibody, IgG1, V domains shown)
# VH: B4 VH with S21P, N57T, R100I, G101S, A102S, D104S, F106V
# VL: B4 VL with K93E, F96W, S100G
# notes: mIgG1
# B7: 4D5 (antibody, IgG1, V domains shown)
# VH: QIQLVQSGPELKKPGETVKISCKASGYTFTTYGVSWVKQAPGKVLKWMGWINTYSGVPTYADDFKGRFAFSLETSASTAYLQISNLKNEDTATYFCAPVTTILHWYFDVWGTGTTVTVSS
# VL: DIQMTQSPSSLSASLGERVSLTCRASQEISGYLSWLQQKPDGTIKRLIYAASTLDSGVPKRFRGSRSGSDYSLTISSLESEDFADYYCLQYASYPFTFGSGTKLEIK
# notes: mIgG1
# B8: 16F10 (antibody, IgG1, V domains shown)
# VH: DVQLQESGPGLVKPSQSLSLTCSVTGYSITSGYYWNWIRQFPGNKLEWMGYISYDGSNNYNPSLKNRISITRDTSKNQFFLKLNSVTTEDTATYYCASIYGNYYAMDYWGQGTSVTVSS
# VL: QIVLTQSPAIMSASPGEKVTMTCSASSSVSYMHWYQQKSGTSPKRWIYDTSKLASGVPARFSGSGSGTSYSLTISSMEAEDAATYYCQQWSSNPPTFGSGTKLEIK
# notes: mIgG1
# B9: 7A1 (antibody, IgG1, V domains shown)
# VH: QVQLQQSGPELVKPGASVKISCKASGYAFSSSWMNWVKQRPGKGLEWIGRIYPGDGDTNYNGKFKGKATLTADKSSSTAYMQLSSLTSEDSAVYFCARRGYGYLAYWGQGTLVTVSA
# VL: DIVMTQSHKFMSTSVGDRVSITCKASQDVSTAVAWYQQKPGQSPKLLIYSASYRYTGVPDRFTGSGSGTDFTFTISSVQAEDLAVYYCQQHYSTPWTFGGGTKLEIK
# notes: mIgG1
# B10: 15C6 (antibody, IgG1, V domains shown)
# VH: B9 VH
# VL: B9 VL with W96Y
# notes: mIgG1
# B11: 831 (antibody, IgG1, V domains shown)
# VH: DVQLQESGPDLVKPSQSLSVTCTVTGYSITSGYSWHWIRQFPGNKLEWMGYIHYSGSTNYNPSLKSRISITRDTSKNQFFLQLSSVTTEDTATYYCASGPHRYDGVWFAYWGQGTLVTVSS
# VL: EIVLTQSPTTMAASPGEKITITCSASSSISSNYLHWYQQKPGFSPKLLIYRTSNLASGVPARFSGSGSGTSYSLTIGTMEAEDVATYYCQQGTNIPLTFGAGTKLEIK
# B12: 10B1 (antibody, IgG1, V domains shown)
# VH: B4 VH with R99N, R100Y, A102S, G103S, D104Y, G105P, D107A, T114L, L115V, S119A
# VL: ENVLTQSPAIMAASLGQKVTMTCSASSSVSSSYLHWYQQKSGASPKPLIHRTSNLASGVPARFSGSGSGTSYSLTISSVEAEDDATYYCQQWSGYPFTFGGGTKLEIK
# B13: 16E1 (antibody, IgG1, V domains shown)
# VH: B4 VH with R99G, R100Y, A102S, G103S, D104Y, D107A, T114L, L115V, S119A
# VL: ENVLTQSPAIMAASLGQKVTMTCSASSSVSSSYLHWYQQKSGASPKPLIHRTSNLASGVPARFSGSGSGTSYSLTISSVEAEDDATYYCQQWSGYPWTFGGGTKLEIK
# B14: 15B6 (antibody, IgG1, V domains shown)
# VH: QVQLQQPGAELVKPGASVKLSCKASGYTFTSYWMHWVKQRPGQGLEWIGMIHPNSGSTNYNEKFKSKATLTVDKSSSTAYMQLSSLTSEDSAVYYCARKRGGLGDYWGQGTSVTVSS
# VL: DIVLTQSPASLAVSLGQRATISCRASKSVSTSGYSYMHWYQQKPGQPPKLLIYLASNLESGVPARFSGSGSGTDFTLNIHPVEEEDAATYYCQHSRELPYTFGGGTKLEIK
# B15: 11.5.1 D265A (antibody, V domains shown)
# VH: EVQLQESGPSLVKPSQTLSLTCSVTGDSITSAYWNWIRKFPGNKLEYMGYISYSGSTYFNPSLKSRISITRNTSKNQYYLQLNSVTTEDTATYYCARSHYYGYYFDYWGHGTTLTVSS
# VL: DIVLTQSPASLAVSLGQRATISCRASETIDSYGDSLMHWYQQKAGQPPKLLIYRASNLESGIPARFSGSGSRTDFTLTINPVEADDVATYYCQQTDEDPYTFGGGTKLEIK
# Target: T1, monomeric soluble human BTLA extracellular domain (BTLA K31-R151) (human, UniProt Q7Z6A9 31-151)
# T1 construct: also called hBTLA; monomeric BTLA
# Assay: SPR 37C, mAb captured, BTLA ECD analyte;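 also: Anti-BTLA mouse antibodies captured on a sensor chip via polyclonal anti-mouse IgG, isotype control antibody in reference channel, rates fitted after reference and blank subtraction to derive Kd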
# For AntiCD3/CD28 (CD4 T cell proliferation) repeat 1 in this document: test concentration or dose not given here.
# For AntiCD3/CD28 (CD4 T cell proliferation) repeat 2 in this document: test concentration or dose not given here.
# For AntiCD3/CD28 (CD69+ CD4 T cells) repeat 1 in this document: test concentration or dose not given here.
# For AntiCD3/CD28 (CD69+ CD4 T cells) repeat 2 in this document: test concentration or dose not given here.
Kd,koff,kon,Binder
43.6 nM,0.0406 s⁻¹,930000 M⁻¹ s⁻¹,B1
722 nM,0.155 s⁻¹,215000 M⁻¹ s⁻¹,B2
4010 nM,1.63 s⁻¹,406000 M⁻¹ s⁻¹,B3
1710 nM,0.347 s⁻¹,203000 M⁻¹ s⁻¹,B4
3.21 nM,0.00185 s⁻¹,577000 M⁻¹ s⁻¹,B5
8.17 nM,0.0044 s⁻¹,538000 M⁻¹ s⁻¹,B6
2930 nM,0.79 s⁻¹,270000 M⁻¹ s⁻¹,B7
48.8 nM,0.0283 s⁻¹,581000 M⁻¹ s⁻¹,B8
40.2 nM,0.0166 s⁻¹,413000 M⁻¹ s⁻¹,B9
718 nM,0.138 s⁻¹,193000 M⁻¹ s⁻¹,B10

# Target: chimeric BTLA of humanised-BTLA mice (human extracellular region, murine transmembrane and signaling … (human; mouse, UniProt Q7TSA3 184-306, limits assumed)
# Assay: cell-based or functional assay
# chimeric BTLA of humanised-BTLA mice (human extracellular region, murine transmembrane and signaling …, sequence (Q7TSA3 other isoform, or with tags, fused parts or gaps mutant limits assumed): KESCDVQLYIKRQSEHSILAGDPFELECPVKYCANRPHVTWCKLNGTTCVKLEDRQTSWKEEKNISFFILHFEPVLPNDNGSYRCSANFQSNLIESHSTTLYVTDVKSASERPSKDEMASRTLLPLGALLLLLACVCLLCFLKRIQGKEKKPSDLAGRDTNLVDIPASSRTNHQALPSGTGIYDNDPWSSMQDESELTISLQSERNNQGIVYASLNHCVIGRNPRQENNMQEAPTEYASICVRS
AntiCD3/CD28 (CD4 T cell proliferation) repeat 1,AntiCD3/CD28 (CD4 T cell proliferation) repeat 2,AntiCD3/CD28 (CD69+ CD4 T cells) repeat 1,AntiCD3/CD28 (CD69+ CD4 T cells) repeat 2,MLR (CD4 T cell proliferation) repeat 1,MLR (CD4 T cell proliferation) repeat 2,Binder
10 % inhibition,-4 % inhibition,39 % inhibition,35 % inhibition,8 % inhibition,17 % inhibition,B1
10 % inhibition,8 % inhibition,50 % inhibition,53 % inhibition,25 % inhibition,34 % inhibition,B11
5 % inhibition,9 % inhibition,30 % inhibition,40 % inhibition,28 % inhibition,23 % inhibition,B2
9 % inhibition,9 % inhibition,22 % inhibition,34 % inhibition,7 % inhibition,24 % inhibition,B3
14 % inhibition,22 % inhibition,43 % inhibition,52 % inhibition,10 % inhibition,17 % inhibition,B4
8 % inhibition,14 % inhibition,24 % inhibition,36 % inhibition,16 % inhibition,25 % inhibition,B12
14 % inhibition,18 % inhibition,47 % inhibition,41 % inhibition,33 % inhibition,30 % inhibition,B5
4 % inhibition,8 % inhibition,9 % inhibition,23 % inhibition,33 % inhibition,8 % inhibition,B13
20 % inhibition,4 % inhibition,51 % inhibition,47 % inhibition,33 % inhibition,23 % inhibition,B6
14 % inhibition,17 % inhibition,28 % inhibition,38 % inhibition,23 % inhibition,29 % inhibition,B9
2 % inhibition,-2 % inhibition,12 % inhibition,19 % inhibition,19 % inhibition,8 % inhibition,B10
9 % inhibition,16 % inhibition,13 % inhibition,20 % inhibition,7 % inhibition,13 % inhibition,B14
-3 % inhibition,-9 % inhibition,-47 % inhibition,-26 % inhibition,-3 % inhibition,1 % inhibition,B15

# Target: full length human BTLA expressed on cells (human, UniProt Q7Z6A9 31-289)
# Assay: cell-based or functional assay
row,T cell reporter (NFκB signaling),Binder
1,23 % inhibition,B1
2,24 % inhibition,B11
3,30 % inhibition,B2
4,27 % inhibition,B3
5,25 % inhibition,B4
6,27 % inhibition,B12
7,23 % inhibition,B5
8,22 % inhibition,B13
9,24 % inhibition,B6
10,20 % inhibition,B9
11,9 % inhibition,B10
12,21 % inhibition,B14
13,-13 % inhibition,B15

# From patent US20230235058A1 (OXFORD UNIVERSITY INNOVATION, published 2023)
